Test results reported in the RNAGym collection of RNA variant scans (doi:10.7554/elife.80360).

B1: CPEB3 Ribozyme (parent)
chain: GGGGGCCACAGCAGAAGCGUUCACGUCGCGGCCCCUGUCAGAUUCUGGUGAAUCUGCGAAUUCUGCUGU

Variants of: B1
Assay: self-cleavage, relative activity (ratio to wild type); higher = more cleavage; co-transcriptional

Row | Variant | self-cleavage
1 | C33G C66A | 0.526
2 | C33G C66U | 0.649
3 | C33G G37A | 0.299
4 | C33G G37U | 0.245
5 | C33G G41U | 0.268
6 | C33G G47A | 0.663
7 | C33G G47C | 0.638
8 | C33G G47U | 0.682
9 | C33G G48A | 0.648
10 | C33G G48C | 0.629
11 | C33G G48U | 0.579
12 | C33G G50A | 0.687
13 | C33G G50C | 0.661
14 | C33G G50U | 0.578
15 | C33G G56C | 0.326
16 | C33G G58C | 0.703
17 | C33G G58U | 0.821
18 | C33G G65A | 0.511
19 | C33G G65C | 0.424
20 | C33G G65U | 0.376
21 | C33G G68A | 0.922
22 | C33G U36A | 0.13
23 | C33G U36G | 0.25
24 | C33G U38A | 0.582

Row | Variant | self-cleavage
25 | C33G U43G | 0.377
26 | C33G U44C | 0.576
27 | C33G U44G | 0.333
28 | C33G U46C | 0.783
29 | C33G U46G | 0.604
30 | C33G U49A | 0.748
31 | C33G U49C | 0.645
32 | C33G U53A | 0.395
33 | C33G U53G | 0.32
34 | C33G U55A | 0.571
35 | C33G U55G | 0.38
36 | C33G U61A | 0.317
37 | C33G U61C | 0.341
38 | C33G U61G | 0.193
39 | C33G U62A | 0.391
40 | C33G U62G | 0.374
41 | C33G U64A | 0.638
42 | C33G U64C | 0.484
43 | C33G U64G | 0.395
44 | C33G U67C | 0.777
45 | C33G U69A | 0.82
46 | C33G U69G | 0.899
47 | C33U A40C | 0.619
48 | C33U A40G | 0.952

Row | Variant | self-cleavage
49 | C33U A40U | 0.906
50 | C33U A42C | 0.793
51 | C33U A42G | 0.916
52 | C33U A42U | 0.953
53 | C33U A51C | 0.948
54 | C33U A51G | 0.922
55 | C33U A51U | 0.963
56 | C33U A52C | 0.978
57 | C33U A59C | 0.706
58 | C33U A59G | 0.959
59 | C33U A59U | 0.8
60 | C33U A60G | 0.814
61 | C33U A60U | 0.505
62 | C33U C34A | 0.413
63 | C33U C34U | 0.825
64 | C33U C35G | 0.396
65 | C33U C35U | 0.884
66 | C33U C39A | 0.866
67 | C33U C45A | 0.987
68 | C33U C45G | 0.98
69 | C33U C54U | 0.949
70 | C33U C57U | 0.345
71 | C33U C63A | 0.795
72 | C33U C63G | 0.82

Row | Variant | self-cleavage
73 | C33U C63U | 0.936
74 | C33U C66G | 0.921
75 | C33U G37A | 0.265
76 | C33U G37C | 0.242
77 | C33U G41C | 0.728
78 | C33U G41U | 0.821
79 | C33U G47A | 0.972
80 | C33U G47C | 0.969
81 | C33U G47U | 0.985
82 | C33U G48A | 1
83 | C33U G48C | 0.998
84 | C33U G48U | 1.03
85 | C33U G50A | 0.979
86 | C33U G50C | 1
87 | C33U G56A | 0.949
88 | C33U G56C | 0.849
89 | C33U G56U | 0.963
90 | C33U G65U | 0.749
91 | C33U G68C | 1.02
92 | C33U U36C | 0.874
93 | C33U U36G | 0.295
94 | C33U U38C | 0.899
95 | C33U U38G | 0.215
96 | C33U U43A | 0.915

Row | Variant | self-cleavage
97 | C33U U43G | 0.678
98 | C33U U44G | 0.945
99 | C33U U46A | 0.98
100 | C33U U46C | 0.977
101 | C33U U46G | 0.979
102 | C33U U49A | 0.97
103 | C33U U49C | 1.02
104 | C33U U49G | 0.996
105 | C33U U53A | 0.932
106 | C33U U53C | 0.861
107 | C33U U53G | 0.727
108 | C33U U55A | 0.965
109 | C33U U61A | 0.905
110 | C33U U61C | 0.913
111 | C33U U61G | 0.82
112 | C33U U64A | 0.919
113 | C33U U64C | 0.92
114 | C33U U64G | 0.941
115 | C33U U67A | 0.971
116 | C33U U67G | 0.982
117 | C33U U69A | 1.01
118 | C33U U69C | 1.05
119 | C33U U69G | 1.06
120 | C34A | 0.869

Row | Variant | self-cleavage
121 | C34A A40G | 0.788
122 | C34A A40U | 0.468
123 | C34A A42C | 0.46
124 | C34A A51G | 0.469
125 | C34A A52C | 0.597
126 | C34A A52G | 0.497
127 | C34A A59G | 0.609
128 | C34A A59U | 0.436
129 | C34A C35G | 0.177
130 | C34A C35U | 0.226
131 | C34A C39G | 0.538
132 | C34A C39U | 0.467
133 | C34A C45U | 0.798
134 | C34A C54U | 0.69
135 | C34A C57A | 0.255
136 | C34A C57G | 0.285
137 | C34A C57U | 0.285
138 | C34A C63A | 0.495
139 | C34A C63G | 0.411
140 | C34A C63U | 0.817
141 | C34A C66G | 0.667
142 | C34A C66U | 0.874
143 | C34A G37A | 0.301
144 | C34A G37U | 0.26

Row | Variant | self-cleavage
145 | C34A G41A | 0.341
146 | C34A G41C | 0.33
147 | C34A G41U | 0.339
148 | C34A G47A | 0.915
149 | C34A G47C | 0.887
150 | C34A G47U | 0.914
151 | C34A G48C | 0.857
152 | C34A G48U | 0.877
153 | C34A G50U | 0.8
154 | C34A G56C | 0.438
155 | C34A G56U | 0.679
156 | C34A G58A | 0.656
157 | C34A G65A | 0.617
158 | C34A G65U | 0.57
159 | C34A G68A | 0.935
160 | C34A G68C | 0.954
161 | C34A G68U | 0.956
162 | C34A U36A | 0.229
163 | C34A U43A | 0.514
164 | C34A U43G | 0.479
165 | C34A U44C | 0.724
166 | C34A U44G | 0.526
167 | C34A U46G | 0.843
